We go through two sequences from US20230220458.

Where only a bound is given, the exact number is not on record here.

The subject of the data set is HhaI restriction endonuclease. Kind of data set: cleavage_in_vitro. To be noted: 37 C 2 h.

The sequence “CGGATAGCGCGGCGGGCGACAGCCCCCCGGATAACCCCGCCGAGGGAGGGGCGCTTGTAAAACCGAGCGGCG (double strand) [lung cancer test locus, unmethylated genomic dsDNA (A-673)]” came in with an activity (cycles (deltaCq test vs control locus)) (100% dsDNA, no visible amplification of test locus after digestion) greater than 18.

Take “CGGATAGCGCGGCGGGCGACAGCCCCCCGGATAACCCCGCCGAGGGAGGGGCGCTTGTAAAACCGAGCGGCG [lung cancer test locus, synthetic ssDNA oligonucleotide]”: the activity (cycles (deltaCq test vs control locus)) (100% ssDNA, digestion impaired) was 7.51.
